Assay results reported in US8975044B2, “Polynucleotides encoding for frizzled-binding agents and uses thereof” (OncoMed Pharmaceuticals, Inc., priority 2008, dated 2015).
Entries after “also recorded” stand apart in the source; their conditions may differ.

B1: 44R24: anti-FZD5/8 IgG antibody, VH SEQ ID NO:85, VL SEQ ID NO:86; ATCC deposit no. PTA-10311 (antibody, V domains shown)
VH: EVQLVESGGGLVQPGGSLRLSCAASGFTFSSYYITWVRQAPGKGLEWVSTISYSSSNTYYADSVKGRFTISRDNSKNTLYLQMNSLRAEDTAVYYCARSIVFDYWGQGTLVTVSS
VL: DIELTQPPSVSVAPGQTARISCSGDALGNRYVYWYQQKPGQAPVLVIPSGIPERFSGSNSGNTATLTISGTQAEDEADYYCGSWDTRPYPKYVFGGGTKLTVLG
modifications: 44R24 VH; 44R24 VL
notes: ATCC deposit no; PTA-10311
B2: 18R5: human anti-FZD antibody; VH SEQ ID NO:10 (as 18R8), VL SEQ ID NO:14; binds FZD1, 2, 5, 7, 8 (antibody, V domains shown)
VH: EVQLVESGGGLVQPGGSLRLSCAASGFTFSHYTLSWVRQAPGKGLEWVSVISGDGSYTYYADSVKGRFTISSDNSKNTLYLQMNSLRAEDTAVYYCARNFIKYVFANWGQGTLVTVSS
VL: DIELTQPPSVSVAPGQTARISCSGDNIGSFYVHWYQQKPGQAPVLVIYDKSNRPSGIPERFSGSNSGNTATLTISGTQAEDEADYYCQSYANTLSLVFGGGTKLTVLG
modifications: 18R5/18R8 heavy chain variable region (VH); 18R5 light chain variable region (VL)
B3: 18R8: human anti-FZD antibody from phage display; VH SEQ ID NO:10, VL SEQ ID NO:12; binds FZD1, 2, 5, 7, 8 (antibody, V domains shown)
VH: EVQLVESGGGLVQPGGSLRLSCAASGFTFSHYTLSWVRQAPGKGLEWVSVISGDGSYTYYADSVKGRFTISSDNSKNTLYLQMNSLRAEDTAVYYCARNFIKYVFANWGQGTLVTVSS
VL: DIELTQPPSVSVAPGQTARISCSGDKLGKKYASWYQQKPGQAPVLVIYEKDNRPSGIPERFSGSNSGNTATLTISGTQAEDEADYYCSSFAGNSLEVFGGGTKLTVLG
modifications: 18R5/18R8 heavy chain variable region (VH); 18R8 light chain variable region (VL)

Tests used:
Muc16 = Muc16 immunohistochemistry on treated OMP-PN13 tumors; format: in vivo, NOD/SCID mice; conditions: 3 doses of 10 mg/kg IP over 12 days; vs LZ1
Description: (§1) Frozen OMP-PN13 tumor cells that have been passaged twice in mice were obtained from Oncomed's tumor bank. They were thawed and injected subcutaneously into the left flank of NOD/SCID mice immediately following thawing. ˜ 25,000 viable cells were injected per animal. The mice were monitored weekly for tumor growth. After their onset, the size of the tumors was measured once weekly by caliper. 200-300 mm^3 tumor-bearing mice were dispatched in treatment groups that each contained 5 animals. […] Ab treatment was initiated the day after randomization. LZ1 was used as the negative control Ab. 3 doses of 10 mg/kg of Ab were administered via intra-peritoneal injection over a 12-day period. Mice were euthanized 24 hours after the last injection. Tumor, duodenum and liver were harvested.
Tumor tissues were fixed in formalin for paraffin embedding and sectioning. Muc16 detection was performed by immunohistochemical (1HC) to monitor the appearance of Mucin-producing cells. Mucins are specific for a subtype of differentiated cells in the pancreas, and as such are used as differentiation markers in the tumor model.
Formalin-fixed, paraffin-embedded (FFPE) sections were de-parrafinized. The slides were first de-parrafinized by sequential treatment with xylene twice for 5 minutes each. […]

Wnt target genes [1] = test: qPCR of Wnt target genes in tumor of OMP-PN13-bearing mice; format: in vivo, NOD/SCID mice
Description: as §1
(§2) Total RNAs were also extracted from tumor, duodenum and liver for Wnt target gene expression analyses using qPCR.
Tissues were immediately transferred into RNAlater (QIAGEN) at the time of harvest. RNA was extracted using the QIAGEN RNeasy for Fibrous Tissue mini kit according to the manufacturer instructions. […] All 5 tumors of each treatment group were analyzed. […] ABI SDS 2.2.1 software was used to analyze the data and calculate DeltaCt values that were converted into relative quantities. […] Fold inhibition factors were then calculated relative to control antibody (LZ1).

Wnt target genes [2] = test: qPCR of Wnt target genes in liver of OMP-PN13-bearing mice; format: in vivo, NOD/SCID mice
Description: as §1, §2
Tissues were immediately transferred into RNAlater (QIAGEN) at the time of harvest. RNA was extracted using the QIAGEN RNeasy for Fibrous Tissue mini kit according to the manufacturer instructions. 50 ng total RNA were submitted to gene expression analyses using ABI one-step RT-PCR protocol and reagents. GusB gene expression was used as endogenous control. Triplicates were setup for each sample. All 5 tumors of each treatment group were analyzed. ABI 7900 TaqMan machine was used to run the experiments. ABI SDS 2.2.1 software was used to analyze the data and calculate DeltaCt values that were converted into relative quantities. The triplicate values of all 5 tumors were averaged for each treatment group. Fold inhibition factors were then calculated relative to control antibody (LZ1).

Cytokeratin 7 = Cytokeratin 7 immunohistochemistry on treated C28 tumors; format: in vivo, Nod-Scid mice; conditions: tumors harvested after treatment, 15 mg/kg twice per week
Description: Following treatment of the animals in the experiment shown in FIG. 58, tumors were harvested, fixed in formalin, embedded in paraffin, and cut in 5 micron sections. Tumor sections were analyzed for Cytokeratin 7 expression, a marker of colon cell differentiation, by immunohistochemistry (Vectastain kit, Vector Labs). Cytokeratin 7 expression was seen to be elevated after treatment with 44R24 or 18R5 (FIG. 59).

Wnt signaling pathway = test: 8xTCF luciferase reporter assay in STF293 cells with Wnt3A-conditioned medium; format: cell-based, human; conditions: range of antibody concentrations, 18 hours
Description: STF293 cells were cultured in DMEM supplemented with antibiotics and 10% FCS. The STF293 cells are 293 cells in which the following have been stably integrated: (1) an 8×TCF Luc reporter vector containing […] of the TCF binding site linked to a promoter upstream of a firefly luciferase reporter gene to measure canonical Wnt signaling levels (Gazit et al., 1999, Oncogene 18:5959-66) and (2) a Renilla luciferase reporter (Promega; Madison, Wis.) as an internal control for transfection efficiency. The cells were added to cultures plates. The FZD antibodies to be tested (or no antibodies) were added. The cells were then incubated in the presence or absence of Wnt3A-conditioned medium that had been prepared from L cells that stably express Wnt3a (ATCC CRL-2647) or control conditioned media from L cells not overexpressing Wnt3A (ATCC cell line CRL-2648). After overnight incubation, luciferase levels were measured using a dual luciferase assay kit (Promega; Madison, Wis.) with firefly luciferase activity normalized to Renilla luciferase activity.
The ability of the 18R8 and 18R5 antibodies to inhibit Wnt-induced pathway activation was thus determined. STF293 cells were treated with different concentrations of 18R8 or 18R5 IgG antibodies and Wnt3A-conditioned medium was added. The cells were assayed 18 hours later using the dual luciferase assay kit.

[3] = tested on: MMTV-WNT1 tumor derived cells; test: MMTV-WNT1 tumor growth; format: in vivo, NOD/SCID mice; conditions: 10 mg/kg intra-peritoneal twice weekly; p=0.002
Description: Female NOD/SCID mice were injected at age 5-7 weeks with 50,000 mouse mammary tumor virus (MMTV)-WNT1 tumor derived cells in the upper right mammary fat pad. […] Tumors from these mice were dissociated and these dissociated tumor cells used for tumor propagation purposes. Mice with tumor cells implanted in the mammary fat pad were monitored twice a week. Once tumors were palpable, tumors were measured twice weekly and tumor volume was determined using the formula ½(a×b^2); where a=length, and b=breadth. Data are expressed as mean and mean±S.E.M. Group means were compared using Student's two-tailed, unpaired t test. […] On day 19, mice with average tumor volume of 44 mm^3 were randomized into 2 groups of 10 animals each. Animals were injected with either control antibody, or 18R5 IgG antibody (10 mg/kg). Administration of the antibodies was performed via injection into the intra-peritoneal cavity, twice weekly.

[4] = fold relative to control antibody LZ1, 3 doses of 10 mg/kg over 12 days

| Molecule | Muc16 staining (Muc16) | tumor Axin2 (Wnt target genes [1]; [4]) [x] | Liver Axin2 (Wnt target genes [2]; [4]) [x] | Liver Rhbg (Wnt target genes [2]; [4]) [x] | Cytokeratin 7 expression (Cytokeratin 7) | inhibition of Wnt3A-induced TCF signaling (Wnt signaling pathway) | tumor growth compared to control antibody [3] | inhibition of Wnt target gene in tumor (Wnt target genes [1]; relative to LZ1) [×] | Liver GluI (Wnt target genes [2]; [4]) [x] | Liver Lect2 (Wnt target genes [2]; [4]) [x] | Liver Lgr5 (Wnt target genes [2]; [4]) [x] | inhibition of Wnt target gene in liver (Wnt target genes [2]; relative to LZ1) [×] |
| --- | --- | --- | --- | --- | --- | --- | --- | --- | --- | --- | --- | --- |
| B1 | slightly higher than in the LZ1-treated tumors | −1.8 | −2.4 | −1.9 | elevated |  |  |  |  |  |  |  |
| B2 | higher levels of staining |  |  |  | elevated | Greater inhibition; also recorded: inhibit Wnt signaling | completely abolished tumor growth | 2.3 | −19 | −8 | −26 | 8 |
| B3 |  |  |  |  |  | inhibit Wnt signaling | virtually eliminated |  |  |  |  |  |
